Assay results taken from the supplement of paper PMC9170038.

Test system: MS2 coat protein
Experiment: apparent KD of MS2 coat protein; designed switch direction (-1 OFF switch, 1 ON switch): -1; higher = weaker reporter binding
Method in brief: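 RNA switches sharing common flanks were transcribed by stalled E. coli RNA polymerase on Illumina chips. A doubling series of SNAP-549-labelled MS2 coat protein, from 0.7 or 1.5 nM to 3 µM, was applied in Tris-HCl pH 7.5 buffer with KCl, MgCl2, BSA, DTT, tRNA and Tween-20. Each step lasted 0.8–1.5 h at the bottom of the series and 10–20 min at the top. Normalised cluster fluorescence was curve-fitted, giving apparent KD as the per-design median over clusters.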

[1] = Eterna round: R95, input ligand: FMN 200 uM
[2] = Eterna round: R95, input ligand: microRNA oligo, concentration not stated
[3] = Eterna round: R95, input ligand: none
[4] = input ligand: microRNA oligo, concentration not stated

Sequence	apparent KD of MS2 coat protein (input ligand: FMN 200 uM) [nM]	apparent KD of MS2 coat protein (input ligand: none) [nM]	apparent KD of MS2 coat protein [2] [nM]	further results
CGGAAAUCCAAGGAUAUGCUAGACGAAAGUCUAGCAGAAGGUGGAACAUGAGGAUCACCCAUGUGUCCAAUCCG [Mat - Exclusion 6 - Eli Mod - D25] (Eterna round: R97, puzzle: Exclusion 6)	19.1	14.5		
UCCAUGUCAGGAUAUCUAAAGGUCCGAAAUAACGGUACUGCAGAGAAGGGACAUGAGGAUCACCCAUGUCCUCC [Exclusion 4 (Mod2 of Nando's EX4 C.22)] (Eterna round: R97, puzzle: Exclusion 4)	20.3	16		
UCAUACGAUGAGGAUAUCUCAGUUAAAGUAUUUAGAGAAGGCGUUACAUGAGGAUCACCCAUGUUUGUGGGCAG [Ex-6 Malc#8] (puzzle: Exclusion 6)			93.9	apparent KD of MS2 coat protein [1]: 99.1 nM; apparent KD of MS2 coat protein [3]: 136 nM
GGAUCGAGUGUGAGGAUAUGCUGGUCCUUGGAUCAGCAGAAGGCACAUGAGGAUCACCCAUGUGAAGACGAUCC [Mat - Exclusion 4 - JL Mod - D73] (puzzle: Brourd's mod of Exclusion 4)			21.2	
UAUUAGCAAGCGAGAUCCCACAUGAGGAUCACCCAUGUGCUCGUCUUAUAAGGUACUGUGACGAAAGUCACGGUACC [Sensor 3, v1 - 95 v5] (Eterna round: R97, puzzle: Sensor, turn-off variant 1)	16.8	15.3		
UUGAACAUAGGAUAUAGUUGUUUGUACAUGAGGAUCACCCAUGUUAGGGAUGUUUUGUUUCUAGAAGGAUGUUGAU [JR_E5_Sub001] (puzzle: Exclusion 5)			128	
UUGUUUUCCGCAGGAUAUGCUCCUCUAUUACUAGCAGAAGGGCGUUGAACAUGAGGAUCACCCAUGUAUGUAAUUGCUUAUUGC [JR_ExcNG1_Sub074] (Eterna round: R96, puzzle: Exclusion NG 1)	19.3	24.4		apparent KD of MS2 coat protein [4]: 17.5 nM
AAGAAACAUGAGGAUCACCCAUGUGAGGAUAUGGCCCGCCCGGCGUAAGCAAAAUAAAUCAGAAGGCACAAAGG [salish99_ex1_r4_008] (Eterna round: R97, puzzle: Exclusion 1)	39.5	47.2		
AUGCGUGGCUAGGAUAUUGAGGAAUUUAGCCAGCAAGAAGGAGCCACAUGAGGAUCACCCAUGUGGUGAACCUC [jl-ex6-4.61 ViennaUCT mod] (Eterna round: R97, puzzle: Exclusion 6)	13.2	30.6		
ACAUGAGGAUCACCCAUGUUUUUUGGGUACUUUUGUUUCUGCAAGGAUAUGCAUUAUUUAUAUACGCAGAAGGUGCAUUACUUC [JR_ExcNG3_Sub061] (Eterna round: R96, puzzle: Exclusion NG 3)				apparent KD of MS2 coat protein [4]: 501 nM
AGAUCACAUGAGGAUCACCCAUGUCAGGAUAUCAUCAUUGAAGCCUCGGCUUCAAUGAUGAGAAGGGACAUAAU [E1/2-B2] (Eterna round: R97, puzzle: Exclusion 1)	546	465		
CAAACAAAGUCAGGAUAUGUCAAAUUUGUUACGACAGAAGGGACGGGACCGACACUCACAGACAUGAGGAUCACCCAUGUAAAA [Areris] (Eterna round: R96, puzzle: Exclusion NG 1)	37.8	33.5		apparent KD of MS2 coat protein [4]: 19 nM
AUUAUAUAGACAGGAUAUUGAUUAUUAUUUUAACAUGAGGAUCACCCAUGUAACCUUAUGUAUAGCAAGAAGGGUCAUUUAUUA [Title] (Eterna round: R96, puzzle: Exclusion NG 2)	107	75.6		apparent KD of MS2 coat protein [4]: 72.9 nM
GCAAGCUUUUGCUCGUCUUACAUGAGGAUCACCCAUGUCGGGUGAUUGCUUCGUGCCCGGGCCCGCCGGGCCCGGGC [-41.5, -70.8 kcal, A 12%] (Eterna round: R97, puzzle: Sensor, turn-off variant 1)	76.9	97.8		
CCGAAUAAGCAGGAUAUCGUAUCGGAAACGAUACGAGAAGGGUUAACAUGAGGAUCACCCAUGUUCCUUAACGG [Fiskers Ex 6 - 17] (puzzle: Exclusion 6)			17.4	
UUAAACGCAGGAUAUACAUUUUUUUUAUUAUCCUCAUAAAUACAUGAGGAUCACCCAUGUAGAAGGGCGAAAUU [Mat - Exclusion 2 - Mod of Hog - D87] (puzzle: Exclusion 2)			144	
UGGGUUCCAAGUGAGUCAGACAUGAGGAUCACCCAUGUAUAGCAAGCCUUAGCCGUUCGAGCAAAUGGUCUCGUCAG [Eternabot (Original) Solution 36] (Eterna round: R97, puzzle: Sensor, turn-off variant 1)	384	1040		
AGGAUGUAAGGAUAUCCAAGGGUAACGCCAAUGGCAGCCCAGGAGAAGGUACAUGAGGAUCACCCAUGUGAUAA [Leatbi] (Eterna round: R97, puzzle: Exclusion 4)	263	80.8		
CAUGAUCUUCGGAUCAUGUACAUGAGGAUCACCCAUGUGACGAGUAUAUCCUCAAACAAGCUUUUUGCUCGUCUUAU [Sensor v3 - Turn-off variant 1 - 22] (puzzle: Sensor v3, turn-off variant 1)			417	apparent KD of MS2 coat protein [1]: 299 nM; apparent KD of MS2 coat protein [3]: 327 nM
AGGCGUGCUGAGGAUAUACUACCGGGUGCGAUAGUAGAAGGUAGCACAUGAGGAUCACCCAUGUGGUCAGAUGC [Qureaor] (puzzle: Exclusion 6)			20	apparent KD of MS2 coat protein [1]: 56.3 nM; apparent KD of MS2 coat protein [3]: 23.6 nM
UUUUAACAUGAGGAUCACCCAUGUGAGGAUAUCGAAAUUUAUAUUUAUAUUAAUAUUACGAGAAGGCACAUUUU [JMF 82] (puzzle: Exclusion 1)			89.6	
UCUUACUGAGGAUAUACUUAGAUUUACAUGAGGAUCACCCAUGUUCCUCUAUGUAUAUAUGUAGAAGGCAGAAGAU [Mat - Exclusion 5 - JL Mod - D47] (Eterna round: R97, puzzle: Exclusion 5)	292	35.6		
ACACUGCGAGGAUAUACAUGAGGAUCACCCAUGUUUCGGUAGUCAAGGUUAAUUUAAGGUAGAAGGCGCGUAUU [JR_Ex3_Sub010] (Eterna round: R97, puzzle: Exclusion 3)	63.8	33.2		
GCGUGAAGGCAGGAUAUAAGAAAAGAAAGAAAAUUAGAAGGGCCGACAUGAGGAUCACCCAUGUGGGCAUGAUC [Xeorusza] (Eterna round: R97, puzzle: Exclusion 6)	33.8	15.9		
AGUUGGCGAGGAUAUACAUGAGGAUCACCCAUGUGAAGAAGAAUAGUGAGGAAGAAAAGUAGAAGGCGCUGACA [Mat - Exclusion 3 - Mod of Salish D37] (puzzle: Exclusion 3)			36.6	
GGUUGGCGAGGAUAUACAUGAGGAUCACCCAUGUGAGAGAAAGAAGUGAGGAAGAAAAGUAGAAGGUGCUGACG [salish99_ex3_r3_055] (puzzle: Exclusion 3)			63.2	apparent KD of MS2 coat protein [1]: 56.6 nM; apparent KD of MS2 coat protein [3]: 82.7 nM
